Experimental data reported in paper PMC3483115 (The Journal of General Physiology, 2012).

Molecular target: calmodulin (CaM), wild type (UniProt P0DP23 1-149)
Test: SEC

- binding result: binds
B1: TRPV1-CT35 (TRPV1 C-terminal residues 767–801) (peptide)
chain: EGVKRTLSFSLRSGRVSGRNWKNFALVPLLRDAST
